# Reference: PMC10962793, “Structural and functional characterization of sulfurtransferase from Frondihabitans sp. PAMC28461” (PLOS ONE, 2024)
# Key:
# [1] = molecular target: T1, FrST (Frondihabitans sp., UniProt Z9JZO3RSK1); assay: colorimetric ferric thiocyanate assay at […] nm, Michaelis-Menten fit; type: biochemical; conditions: read-out: Kinetic parameters^* / Km
# T1 construct: synthetic gene in pET28a, E. coli BL21(DE3); His-tag cleaved with thrombin; model 302 residues; catalytic Cys247
# [2] = tested on: CC(CS)C(=O)O; assay: purified protein; type: biochemical, Frondihabitans sp.; conditions: pH 8.0; 25.0 °C
# [3] = tested on: CS(=O)(=O)S; assay: purified protein; type: biochemical, Frondihabitans sp.; conditions: pH 8.0; 25.0 °C
# [4] = tested on: O=C(O)C(=O)CS; assay: purified protein; type: biochemical, Frondihabitans sp.; conditions: pH 8.0; 25.0 °C
# [5] = tested on: O=C(O)CCS; assay: purified protein; type: biochemical, Frondihabitans sp.; conditions: pH 8.0; 25.0 °C
# [6] = tested on: O=S(=O)(S)c1ccccc1; assay: purified protein; type: biochemical, Frondihabitans sp.; conditions: pH 8.0; 25.0 °C
# [7] = molecular target: sulfurtransferase FrST from Frondihabitans sp. PAMC28461 (Frondihabitans sp. PAMC28461); assay: AUC; sedimentation velocity, 20 mM Tris-HCl pH 8.0, 200 mM NaCl, 20°C, 42,000 RPM, 280 nm, SEDFIT
compound,measurement,setting,value
O=S(O)(O)=S [Sodium thiosulfate],Km,[1],6.3 ± 0.2 mM
FrST (Frondihabitans sp.),Km,[2],4.1 ± 0.4 mM
same,Vmax,[2],17.8 µmol/min/mg
same,kcat/Km,[2],240 M⁻¹ s⁻¹
same,Km,[3],6.0 ± 0.3 mM
same,Vmax,[3],1490 µmol/min/mg
same,kcat/Km,[3],14200 M⁻¹ s⁻¹
same,Km,[4],13.9 ± 2.6 mM
same,Vmax,[4],150 µmol/min/mg
same,kcat/Km,[4],610 M⁻¹ s⁻¹
same,Km,[5],10.7 ± 1.3 mM
same,Vmax,[5],43.7 µmol/min/mg
same,kcat/Km,[5],250 M⁻¹ s⁻¹
same,Km,[6],6.1 ± 0.9 mM
same,Vmax,[6],7810 µmol/min/mg
same,kcat/Km,[6],73000 M⁻¹ s⁻¹
sulfurtransferase FrST from Frondihabitans sp. PAMC28461 (enzyme),stoichiometry N,[7],2
